Reference: article PMC11740425

What was measured:
[1] = molecular target: TCR1 with the T30Q mutation in CDR-1A (human | mouse); experiment: flow cytometry on cells
[2] = molecular target: TCR1 with the T30Q mutation in CDR-1A (human | mouse)

pMut-HLA binding positivity rate [1]: 60% | EC50 (functional avidity) of TCR Jurkat cells for KRAS^G12D peptide [2]: 53 nM
Substance: KRAS^G12D peptide presented by HLA-A*11:01 (KRAS^G12D tetramer) (from UniProt P61769 21-119; P01116 7-16) (peptide-MHC)
